{"source": "patent US20140323349A1", "about": "“COMPOSITIONS AND METHODS FOR MONITORING AND DETECTING CANCEROUS CONDITIONS” (PHIGENIX, INC., priority 2011, published 2014)", "type_in_all_cases": "cell-based, human", "key": {"[1]": {"test_system": "DU145 cells", "assay": "Annexin V-FITC/PI flow cytometry", "description": "(§1) The remaining attached cells were harvested by trypsinization and combined with the detached cells and PBS. The cells were then pelleted at 4° C. (500×g) for 5 min, washed twice in PBS, and resuspended in 100 ul of 1× Annexin binding buffer (0.1 M Hepes/NaOH at pH 7.4, 1.4 M NaCl, 25 mM CaCl2) containing 5 μl of Annexin V-FITC and 5 μl of PI. The cells were incubated at room temperature (RT) for 15 min. in the dark, then diluted with 400 μl of 1× Annexin binding buffer and analyzed by FACscan (Becton Dickinson, San Jose, Calif.). All reactions were performed three times.\n(§2) PC3 and DU145 cells transfected with the hBD-1 expression system were grown in 60-mm dishes and induced for 12, 24, and 48 h with 10 μM Pon A. The cells were harvested and analyzed by flow cytometry as described in Example 1."}, "[2]": {"test_system": "PC3 cells", "assay": "Annexin V-FITC/PI flow cytometry", "description": "as §1, §2"}, "[3]": {"test_system": "LNCaP cells", "assay": "MTT cell viability assay", "conditions": "DEFB1 induction 24-72 h", "description": "Reactions were performed three times in triplicate.\nDU145, PC3 and LNCaP cells (1×10^5) were transfected with 0.5 μg of the PAX2 siRNA pool or control siRNA pool using Codebreaker transfection reagent according to the manufacturer's protocol (Promega). Next, cell suspensions were diluted and seeded onto a 96-well plate at 1-5×10^3 cells per well and allowed to grow for 2-, 4- or 6 days. After culture, cell viability was determined by measuring the conversion of 3-[4,5-dimethylthiazol-2yl]-2,5 diphenyl tetrazolium bromide, MTT (Promega), to a colored formazan product. Absorbance was read at 540 nm on a scanning multiwell spectrophotometer.\n(§3) To examine the effects of hBD-1 on cell growth, metabolic 3-[4,5-dimethylthiazol-2yl]-2,5-diphenyl tetrazolium bromide (MTT) assay was performed. DU145, LNCaP, PC3 and PC3/AR+ cells co-transfected with pvgRXR plasmid and pIND/hBD-1 construct or control pvgRXR plasmid were seeded onto a 96-well plate at 1-5×10^3 cells per well. Twenty-four hours after seeding, fresh growth medium was added containing 10 μM Pon A daily to induce hBD-1 expression for 24, 48 and 72 h after which the MTT assay was performed according to the manufacturer's instructions (Promega). Reactions were performed three times in triplicate."}, "[4]": {"test_system": "DU145 cells", "assay": "AO/EtBr membrane integrity staining", "description": "(§4) Acridine orange (AO)/ethidium bromide (EtBr) dual staining was performed to identify changes in cell membrane integrity, as well as apoptotic cells by staining the condensed chromatin. AO stains viable cells as well as early apoptotic cells, whereas EtBr stains late stage apoptotic cells that have lost […]. Briefly, cells were seeded into 2 chamber culture slides (BD Falcon, USA). […] In order to determine the effect of PAX2 inhibition on membrane integrity, separate culture slides containing DU145, PC3 and LNCaP were treated with PAX2 siRNA and incubated for 4 days. Following this, cells were washed once with PBS and stained with 2 ml of a mixture (1:1) of AO (Sigma, USA) and EtBr (Promega, USA) (5 ug/ml) solution for 5 min. Following staining, the cells were again washed with PBS. Fluorescence was viewed by a Zeiss LSM 5 Pascal Vario 2 Laser Scanning Confocal Microscope (Carl Zeiss Jena, Germany). The excitation color wheel contain BS505-530 (green) and LP560 (red) filter blocks which allowed for the separation of emitted green light from AO into the green channel and red light from EtBr into the red channel. […] The excitation was provided by a Kr/Ar mixed gas laser at wavelengths of […]. Slides were analyzed under 40× magnification and digital images were stored as uncompressed TIFF files and exported into Photoshop CS software (Adobe Systems, San Jose, Calif.) for image processing and hard copy presentation.\n(§5) Acridine orange (AO)/ethidium bromide (EtBr) dual staining was performed to identify changes in cell membrane integrity, as well as apoptotic cells by staining the condensed chromatin. AO stains viable cells and early apoptotic cells, whereas EtBr stains late stage apoptotic cells that have compromised membranes. Briefly, PC3, DU145 and LNCaP cells were seeded into 2-chamber culture slides (BD Falcon). Cells transfected with empty plasmid or hBD-1 plasmid were induced for 24 or 48 h with media containing 10 μM Pon A, while control cells received fresh growth media at each time point. After induction, cells were washed once with PBS and stained with 2 ml of a mixture (1:1) of AO (Sigma, St. Louis, Mo.) and EtBr (Promega) (5 μg/ml) solution for 5 min and were again washed with PBS.\n(§6) Fluorescence was viewed by a Zeiss LSM 5 Pascal Vario 2 Laser Scanning Confocal Microscope (Carl Zeiss). The excitation color wheel contains BS505-530 (green) and LP560 (red) filter blocks which allowed for the separation of emitted green light from AO into the green channel and red light from EtBr into the red channel. The laser power output and gain control settings within each individual experiment were identical between control and hBD-1 induced cells. The excitation was provided by a Kr/Ar mixed gas laser at wavelengths of […]. Slides were analyzed under 40× magnification and digital images were stored as uncompressed TIFF files and exported into Photoshop CS software (Adobe Systems) for image processing and hard copy presentation."}, "[5]": {"test_system": "PC3 cells", "assay": "AO/EtBr membrane integrity staining", "description": "as §4, §5, §6"}, "[6]": {"test_system": "LNCaP cells", "assay": "AO/EtBr membrane integrity staining", "conditions": "48 h hBD-1 induction", "description": "as §4, §5, §6"}, "[7]": {"test_system": "PC3/AR+ cells", "assay": "MTT cell viability assay", "conditions": "PC3/AR+ versus PC3", "description": "as §3"}, "[8]": {"test_system": "active caspases", "assay": "Pan-caspase detection (FAM-VAD-FMK, confocal)", "description": "Detection of caspase activity in the prostate cancer cell lines was performed using APO LOGIX™ Carboxyfluorescin Caspase detection kit (Cell Technology, Mountain View, Calif.). Active caspases were detected through the use of a FAM-VAD-FMK inhibitor that irreversibly binds to active caspases. […] Next, 10 μl of a 30× working dilution of carboxyfluorescein labeled peptide fluoromethyl ketone (FAM-VAD-FMK) was added to 300 μl of media and added to each 35 mm dish. Cells were then incubated for 1 hour at 37° C. under 5% CO2. Then, the medium was aspirated and the cells were washed twice with 2 ml of a 1× Working dilution Wash Buffer. Cells were viewed under differential interference contrast (DIC) or under laser excitation at 488 nm. The fluorescent signal was analyzed using a confocal microscope (Zeiss LSM 5 Pascal) and a 63×DIC oil lens with a Vario 2 RGB Laser Scanning Module."}, "[9]": {"test_system": "DU145 cells", "assay": "Phase contrast microscopy of cell growth", "conditions": "DU145, 48 h DEFB1 induction", "description": "(§7) Cell morphology was analyzed by phase contrast microscopy. […] The following day plasmid-containing cells were induced for a period of 48 h with media containing 10 μM Ponasterone A, while control cells received fresh media. The cells were then viewed under an inverted Zeiss IM 35 microscope (Carl Zeiss, Germany). Phase contrast pictures of a field of cells were obtained using the SPOT Insight Mosaic 4.2 camera (Diagnostic Instruments, USA). Cells were examined by phase contrast microscopy under 32× magnification and digital images were stored as uncompressed TIFF files and exported into Photoshop CS software (Adobe Systems, San Jose, Calif.) for image processing and hard copy presentation.\n(§8) The effect of PAX2 knock-down on cell growth was analyzed by phase contrast microscopy as described in Example 1."}, "[10]": {"test_system": "PC3 cells", "assay": "Phase contrast microscopy of cell growth", "conditions": "PC3, 48 h DEFB1 induction", "description": "as §7, §8"}, "[11]": {"test_system": "LNCaP cells", "assay": "Phase contrast microscopy of cell growth", "conditions": "48 h DEFB1 induction", "description": "as §7, §8"}}}
{"molecule": "DEFB1: human β-defensin-1 (SEQ ID NO:63), expressed in cells from pIND/DEFB1 on Ponasterone A induction (protein, listed as Homo sapiens) MRTSYLLLFTLCLLLSEMASGGNFLTGLGHRSDHYNCVSSGGQCLYSACPIFTKIQGTCYRGKAKCCK", "values": [{"measurement": "number of apoptotic cells", "setting": "[1]; DU145, 12 h DEFB1 induction", "result": 12, "unit": "%"}, {"measurement": "number of apoptotic cells", "setting": "[1]; DU145, 24 h DEFB1 induction", "result": 34, "unit": "%"}, {"measurement": "number of apoptotic cells", "setting": "[1]; DU145, 48 h DEFB1 induction", "result": 59, "unit": "%"}, {"measurement": "number of apoptotic cells", "setting": "[2]; PC3, 12 h DEFB1 induction", "result": 10, "unit": "%"}, {"measurement": "number of apoptotic cells", "setting": "[2]; PC3, 24 h DEFB1 induction", "result": 20, "unit": "%"}, {"measurement": "effect on cell viability", "setting": "[3]", "result": "no significant effect"}, {"measurement": "membrane integrity (AO/EtBr)", "setting": "[4]; DU145, 24 h DEFB1 induction", "result": "accumulation of EtBr in the cytoplasm"}, {"measurement": "membrane integrity (AO/EtBr)", "setting": "[4]; DU145, 48 h DEFB1 induction", "result": "condensed nuclei and appeared yellow"}, {"measurement": "membrane integrity (AO/EtBr)", "setting": "[5]; PC3, 24 h DEFB1 induction", "result": "accumulation of EtBr in the cytoplasm"}, {"measurement": "membrane integrity (AO/EtBr)", "setting": "[5]; PC3, 48 h DEFB1 induction", "result": "condensed nuclei and appeared yellow"}, {"measurement": "membrane integrity (AO/EtBr)", "setting": "[6]", "result": "no observable alterations to membrane integrity"}, {"measurement": "hBD-1 cytotoxicity with ectopic AR expression", "setting": "[7]", "result": "no difference between PC3/AR+ and PC3 cells"}, {"measurement": "caspase activity (green staining)", "setting": "[8]; DU145, 24 h DEFB1 induction", "result": "green staining"}, {"measurement": "caspase activity (green staining)", "setting": "[8]; LNCaP, 24 h DEFB1 induction", "result": "no green staining"}, {"measurement": "caspase activity (green staining)", "setting": "[8]; PC3, 24 h DEFB1 induction", "result": "green staining"}, {"measurement": "cell number", "setting": "[9]", "result": "significant reduction in cell number"}, {"measurement": "cell number", "setting": "[10]", "result": "significant reduction in cell number"}, {"measurement": "cell proliferation", "setting": "[11]", "result": "no effect on cell proliferation"}]}
